From paper PMC6363440 (The Journal of Cell Biology, 2019)

Molecular target: Flag-53BP1 (human, UniProt Q12888 1-1972)
Test: pull-down

Chain of Flag-53BP1 (Q12888 whole entry): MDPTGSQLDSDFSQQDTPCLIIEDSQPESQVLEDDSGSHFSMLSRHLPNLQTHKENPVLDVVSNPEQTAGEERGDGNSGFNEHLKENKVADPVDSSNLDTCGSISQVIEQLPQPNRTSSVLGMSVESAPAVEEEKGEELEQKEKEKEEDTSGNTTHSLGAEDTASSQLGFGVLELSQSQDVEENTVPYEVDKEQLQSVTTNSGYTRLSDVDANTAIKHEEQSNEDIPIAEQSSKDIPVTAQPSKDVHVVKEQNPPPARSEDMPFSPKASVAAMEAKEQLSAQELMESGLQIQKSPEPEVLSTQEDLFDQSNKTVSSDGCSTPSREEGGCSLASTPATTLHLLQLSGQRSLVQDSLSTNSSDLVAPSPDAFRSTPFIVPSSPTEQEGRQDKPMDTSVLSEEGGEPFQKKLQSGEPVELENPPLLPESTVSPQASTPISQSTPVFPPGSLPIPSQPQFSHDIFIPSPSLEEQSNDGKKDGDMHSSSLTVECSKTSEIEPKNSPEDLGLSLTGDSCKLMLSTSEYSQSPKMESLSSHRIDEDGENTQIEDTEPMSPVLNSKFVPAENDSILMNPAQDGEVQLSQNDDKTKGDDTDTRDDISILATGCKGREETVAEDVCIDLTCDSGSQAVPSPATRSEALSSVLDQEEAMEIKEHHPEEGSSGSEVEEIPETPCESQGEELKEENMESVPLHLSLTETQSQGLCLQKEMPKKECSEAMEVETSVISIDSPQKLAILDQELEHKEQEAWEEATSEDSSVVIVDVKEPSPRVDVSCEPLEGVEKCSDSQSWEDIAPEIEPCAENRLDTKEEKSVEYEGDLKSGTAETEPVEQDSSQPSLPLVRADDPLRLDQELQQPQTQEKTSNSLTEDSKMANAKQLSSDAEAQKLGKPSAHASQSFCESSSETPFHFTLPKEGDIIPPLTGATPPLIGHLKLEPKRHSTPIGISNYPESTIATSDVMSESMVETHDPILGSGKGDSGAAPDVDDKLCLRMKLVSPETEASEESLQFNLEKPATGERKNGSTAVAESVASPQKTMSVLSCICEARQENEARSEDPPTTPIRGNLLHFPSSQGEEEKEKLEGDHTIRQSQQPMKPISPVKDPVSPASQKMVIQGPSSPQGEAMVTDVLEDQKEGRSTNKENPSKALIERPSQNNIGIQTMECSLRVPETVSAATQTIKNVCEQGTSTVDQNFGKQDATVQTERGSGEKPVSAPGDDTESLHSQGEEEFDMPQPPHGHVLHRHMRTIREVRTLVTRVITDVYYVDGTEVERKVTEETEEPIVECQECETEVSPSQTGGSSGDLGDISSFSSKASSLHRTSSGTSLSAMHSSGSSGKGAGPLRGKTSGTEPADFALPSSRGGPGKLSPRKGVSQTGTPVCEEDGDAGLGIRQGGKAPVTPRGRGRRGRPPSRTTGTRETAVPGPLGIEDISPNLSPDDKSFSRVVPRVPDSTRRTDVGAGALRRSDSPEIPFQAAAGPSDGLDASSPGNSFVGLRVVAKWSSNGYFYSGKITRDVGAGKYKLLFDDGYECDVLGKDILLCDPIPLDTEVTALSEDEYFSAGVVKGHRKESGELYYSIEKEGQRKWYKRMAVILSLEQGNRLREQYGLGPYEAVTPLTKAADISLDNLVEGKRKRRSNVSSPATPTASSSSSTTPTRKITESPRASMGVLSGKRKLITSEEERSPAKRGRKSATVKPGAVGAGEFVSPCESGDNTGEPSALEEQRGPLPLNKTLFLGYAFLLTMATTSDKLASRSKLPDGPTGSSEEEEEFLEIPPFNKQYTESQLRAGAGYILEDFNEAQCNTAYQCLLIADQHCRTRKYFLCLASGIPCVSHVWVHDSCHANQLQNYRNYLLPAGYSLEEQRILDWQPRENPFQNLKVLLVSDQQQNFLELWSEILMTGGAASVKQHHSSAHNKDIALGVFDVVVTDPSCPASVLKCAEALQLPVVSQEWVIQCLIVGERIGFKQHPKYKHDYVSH

binding result: binds
B1: GST-TPX2 (natural protein)
chain: MSQVKSSYSYDAPSDFINFSSLDDEGDTQNIDSWFEEKANLENKLLGKNGTGGLFQGKTPLRKANLQQAIVTPLKPVDNTYYKEAEKENLVEQSIPSNACSSLEVEAAISRKTPAQPQRRSLRLSAQKDLEQKEKHHVKMKAKRCATPVIIDEILPSKKMKVSNNKKKPEEEGSAHQDTAEKNASSPEKAKGRHTVPCMPPAKQKFLKSTEEQELEKSMKMQQEVVEMRKKNEEFKKLALAGIGQPVKKSVSQVTKSVDFHFRTDERIKQHPKNQEEYKEVNFTSELRKHPSSPARVTKGCTIVKPFNLSQGKKRTFDETVSTYVPLAQQVEDFHKRTPNRYHLRSKKDDINLLPSKSSVTKICRDPQTPVLQTKHRARAVTCKSTAELEAEELEKLQQYKFKARELDPRILEGGPILPKKPPVKPPTEPIGFDLEIEKRIQERESKKKTEDEHFEFHSRPCPTKILEDVVGVPEKKVLPITVPKSPAFALKNRIRMPTKEDEEEDEPVVIKAQPVPHYGVPFKPQIPEARTVEICPFSFDSRDKERQLQKEKKIKELQKGEVPKFKALPLPHFDTINLPEKKVKNVTQIEPFCLETDRRGALKAQTWKHQLEEELRQQKEAACFKARPNTVISQEPFVPKKEKKSVAEGLSGSLVQEPFQLATEKRAKERQELEKRMAEVEAQKAQQLEEARLQEEEQKKEELARLRRELVHKANPIRKYQGLEIKSSDQPLTVPVSPKFSTRFHC
